{
  "source": "paper doi:10.1101/689042",
  "key": {"[1]": {"molecular_target": "Sorbitol dehydrogenase SmoS from Sinorhizobium meliloti 1021 (Sinorhizobium meliloti 1021)", "experiment": "crystal structure"}, "[2]": {"molecular_target": "Sorbitol dehydrogenase SmoS from Sinorhizobium meliloti 1021 (Sinorhizobium meliloti 1021)", "experiment": "SEC"}},
  "data": [
    {"substance": "Sorbitol dehydrogenase SmoS from Sinorhizobium meliloti 1021 (enzyme)", "values": [
      {"measurement": "stoichiometry N", "setting": "[1]", "value": 4},
      {"measurement": "stoichiometry N", "setting": "[2]", "value": 4}
    ]}
  ]
}
